Data reported in the nanobody polyreactivity screen of Harvey et al. (2022).

Assay: yeast display, Sf9 membrane polyspecificity reagent, FACS + sequencing; frameworks hold sequencing errors
Summary of the method: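 A synthetic nanobody library was expressed on Saccharomyces cerevisiae BJ5465 by galactose induction for 36–48 hours. The library was stained for 1 hour at 4 °C with 10% biotinylated, detergent-solubilized Sf9 membrane reagent and enriched with streptavidin microbeads before FACS. Low and high (top ~1%) gates were set on anti-HA fluorescence for expression and streptavidin fluorescence for reagent binding, and each polyreactivity label reflects the gate of origin.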

Row | Sequence | polyreactivity (PSR sort gate)
1 | QVQLVDSGGGLVQAGGSLRLSCAASGRTFTWYAMGWYRQAPGKERELVSAITNGGRTYADSVKGRFTISRDNAKNTVYLQMNSLKPEDTAVYYCAKVQYRGYLPHQRGRERDYDYWGQGTQVTVSS | low polyreactivity
2 | QVQLVDSGGGLVQAGGSLRLSCAASGRTIATYTQGWYRHAPGKERELVAAISKSGGSTYYADSVKGRFTISRDNAKNTVYLQMNSLKTEDTAVYYCAKRRSGNVRKYDYWGQGTQVTVSS | high polyreactivity
3 | QVQLVDSGGGLVQAGGSLRLSCAASGRTIYLYAMACYRQAPGKERELVAAISERGGRTYYADSVKGRFTISRDNAKNTVYLQMNSLKPEDTAVYYCAAVKGYNYGYWGQGTQVTVSS | high polyreactivity
4 | QVQLVDSGGGLVQAGGSLRLSCAASGSIFNVYAMGWYRQAPGKERELVAAITGSGGRTYYADSVKGRFTISRDNAKNTVYLQMNSLKPEDTAVYYCAATTRPGYRYEGDYWGQGTQVTVSS | low polyreactivity
5 | QVQLVDSGGGLVQAGGSLRLSCAASGSIFPGNPMGWYRQAPGKERELVAVIDFSGASTYYADSVKGRFTISRDNAKNTVYFQMNSLKPEDTADYWGQCTQVTVSS | low polyreactivity
6 | QVQLVDSGGGLVQAGGSLRLSCAASGSIFSKYAMGGYRQAPGKERELVAAISGSGVSTYYADSVKGRFTISRDNAKNTVFLQMNSLKTEDTAVYYCNARGSFHQPRYGYWGQGTQVTVSS | high polyreactivity
7 | QVQLVDSGGGLVQAGGSLRLSCAASGSIFSVYSMGGNRQATGKERELVASISRTGTTNYADSVKGSFTISRDNAKNTVYLQMNSLKPEDTAVFYCATDFTDWDVFLIKEFGYDYWGQGTQVTVSS | low polyreactivity
8 | QVQLVDSGGGLVQAGGSLRLSCAASGSIFVGNAMGWYRQAPGKERELVAAITSSGGRTYYADSVKGRFTISRDNAKYTVYLQMNSLKAEDTSVYYCNTSRTRRFSLWDYDYWGQGTQVSVSS | high polyreactivity
9 | QVQLVDSGGGLVQAGGSLRLSCAASGSIFVKYAMGCYRQAPGKERELVAAISGSGGSTYYADSVKGRFTISRDNAKNTVSLQMNSLKPEDTAVYYCAADDYFYSGRYGFEFWGQGTQVTVSS | low polyreactivity
10 | QVQLVDSGGGLVQAGGSLRLSCAASGSIFYWYAMGWYRQAPGKERELVAAISWSGGSTFYADSVKGRFTISRDNAKNTVYLQMNSLKPEDTAVYYCAAETPYDYDYWGQGTQVTVSS | high polyreactivity
11 | QVQLVDSGGGLVQAGGSLRLSCAASGSIFYYNAMGWYRPAPGKERELVAAITSSGGSTYYADSVKGRFTISRDNAKNTVYLQMNSLKPEDTAVYYCYAGATALRYRPYSSAYDYWGQGTQVTVSS | low polyreactivity
12 | QVQLVDSGGGLVQAGGSLRLSCAASGSILVYYAMGWYRQAPGKERELVAAISSGGSTNYADSVKGRFTISRDNANNTVYLKINSLKPEDTAVYYCAKPDRTGWLEGDYWGQGTQVSVSS | low polyreactivity
13 | QVQLVDSGGGLVQAGGSLRLSCAASGSNFDDYAMGWYRQAPGKERELVAAISSSGTSTYYADSVKGRFTISRDNAKNTVYLQMNSLKPEDTAVYYCAAKKKYHYVASYKRFEYWGQGTQVTVSS | low polyreactivity
14 | QVQLVDSGGGLVQAGGSLRLSCAASGSNFGTYAMGWYRQAPGKERELVAAITTNGVSTYYADSVKGRFTISRDNAKNTVYLQMNSLKPEDTAVYYCAAPIQAWVRHLADIRYDYWGQGTQVTVSS | low polyreactivity
15 | QVQLVDSGGGLVQAGGSLRLSCAASGSTFDAYAMGWYRQAPGKERELVAGISSGGSYEYAESVKGRFTISRDNAKNTVYVQMNSLKPEDTAVYYCAADSRQSDYYYQPTKFDYWGQGTQVTVSS | low polyreactivity
16 | QVQLVDSGGGLVQAGGSLRLSCAASGSTFESYAMGWDRQAPGKERELVAAISTNGGRTRYADSVKGRFTISRDNAKNTVYLQMNSLKPVDTAVYYCATYVRGVYASSGYDYWGQGTQVTVSS | high polyreactivity
17 | QVQLVDSGGGLVQAGGSLRLSCAASGSTFGPYAMGWYRQAPGKERELVAAISGSGGTTYYADSVKGRFTMSRDNSKNTVYLQMNSLKPEDTAVYDCAAYPRWTYWGYVERYYWGQGTQVTVSS | high polyreactivity
18 | QVQLVDSGGGLVQAGGSLRLSCAASGSTFGSYAMGWYRQAPGKERELVAAISWNGGRTYYADSVKGRFTISRDNAKNTVYLQMNSLKPEDTAVYYCAKVVKYQSGGGLDYWGQGTQVTVSS | high polyreactivity
19 | QVQLVDSGGGLVQAGGSLRLSCAASGSTFKYYAMGWYRQAPGKERELVAAISGRGGRTYYADSVKGRFTISRDHAKNTVYLQMNSLKPEDTAVYYCNAPFLGAHHYGYEYWGQGTQVTVSS | high polyreactivity
20 | QVQLVDSGGGLVQAGGSLRLSCAASGSTFNPYAMGWYRQAPGKERELVAGISWSGGSTYYADSVKGRFSISRDNAKNTVYLQMNSLKPEDTAVYYCAVVVYWSVIYDFWGQGTQVTVST | low polyreactivity
21 | QVQLVDSGGGLVQAGGSLRLSCAASGSTFRYNAMGWYRQAPGKERELVAAIDKRGDSTYADSVKGRFTISRDNAKNTVYLQLNSLKPEDTAVYYCAADSDSKYNYGFLWDTYEYWGQGTQVTVSS | low polyreactivity
22 | QVQLVDSGGGLVQAGGSLRLSCAASGSTFRYNAMGWYRQAPGKERELVAAIDKRGDSTYADSVKGRFTISRDNAKNTVYLQMNSLKPEDTAVYYCAADSDSKYNYGFLWDTYEYWGQGTQVTVSS | low polyreactivity
